Experimental data: article PMC10397247

Legend:
Assay in all cases: two-hybrid library CCmax;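 note: natural log of median RNA to DNA barcode read ratio; higher means stronger binding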
4H337-AA = biological target: T1, 4H337-AA
T1 chain: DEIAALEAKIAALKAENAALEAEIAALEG

4H3587-AA = biological target: T2, 4H3587-AA; conditions: mean of both orientations
T2 chain: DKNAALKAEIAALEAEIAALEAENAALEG

4H3590-AA = biological target: T3, 4H3590-AA; conditions: mean of both orientations
T3 chain: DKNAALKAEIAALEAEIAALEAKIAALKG

4H3625-AA = biological target: T4, 4H3625-AA; conditions: mean of both orientations
T4 chain: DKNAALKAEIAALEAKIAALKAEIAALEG

4H384-AA = biological target: T5, 4H384-AA
T5 chain: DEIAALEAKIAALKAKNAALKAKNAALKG

4H3905-AA = biological target: T6, 4H3905-AA; conditions: mean of both orientations
T6 chain: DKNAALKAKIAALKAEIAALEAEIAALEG

4H4038-AA = biological target: T7, 4H4038-AA; conditions: mean of both orientations
T7 chain: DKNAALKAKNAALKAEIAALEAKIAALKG

4H43-AA = biological target: T8, 4H43-AA; conditions: mean of both orientations
T8 chain: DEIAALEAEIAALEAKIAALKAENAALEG

4H451-AA = biological target: T9, 4H451-AA; conditions: mean of both orientations
T9 chain: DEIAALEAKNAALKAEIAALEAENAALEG

4H510-AA = biological target: T10, 4H510-AA; conditions: mean of both orientations
T10 chain: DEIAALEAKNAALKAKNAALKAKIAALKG

4H_APH = biological target: T11, 4H_APH; conditions: mean of both orientations
T11 chain: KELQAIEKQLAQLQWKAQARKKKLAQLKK

4H_BCR = biological target: T12, 4H_BCR; conditions: mean of both orientations
T12 chain: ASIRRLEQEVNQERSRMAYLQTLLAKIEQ

4H_GCN4 = biological target: 4H_GCN4
GCN2_T = biological target: GCN2_T
O11-AA = biological target: T13, O11-AA; conditions: mean of both orientations
T13 chain: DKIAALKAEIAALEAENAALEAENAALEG

O13-AA = biological target: T14, O13-AA; conditions: mean of both orientations
T14 chain: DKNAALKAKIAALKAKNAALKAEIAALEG

O14-AA = biological target: T15, O14-AA; conditions: mean of both orientations
T15 chain: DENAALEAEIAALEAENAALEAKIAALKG

APC2811-AA = biological target: T16, APC2811-AA
T16 chain: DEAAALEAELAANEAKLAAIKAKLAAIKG

APC2981-AA = biological target: T17, APC2981-AA; conditions: mean of both orientations
T17 chain: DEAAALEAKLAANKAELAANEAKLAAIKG

APC3265-AA = biological target: T18, APC3265-AA; conditions: mean of both orientations
T18 chain: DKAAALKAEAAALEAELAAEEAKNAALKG

APC3323-AA = biological target: T19, APC3323-AA; conditions: mean of both orientations
T19 chain: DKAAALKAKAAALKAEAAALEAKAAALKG

APC3354-AA = biological target: T20, APC3354-AA; conditions: mean of both orientations
T20 chain: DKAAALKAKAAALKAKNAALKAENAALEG

APC3881-AA = biological target: T21, APC3881-AA; conditions: mean of both orientations
T21 chain: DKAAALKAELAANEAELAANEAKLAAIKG

APC4100-AA = biological target: T22, APC4100-AA; conditions: mean of both orientations
T22 chain: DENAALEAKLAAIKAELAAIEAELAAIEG

APC4336-AA = biological target: T23, APC4336-AA; conditions: mean of both orientations
T23 chain: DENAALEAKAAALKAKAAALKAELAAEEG

APC5009-AA = biological target: T24, APC5009-AA; conditions: mean of both orientations
T24 chain: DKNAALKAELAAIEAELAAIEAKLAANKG

APC542-AA = biological target: T25, APC542-AA; conditions: mean of both orientations
T25 chain: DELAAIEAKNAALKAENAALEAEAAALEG

APC5531-AA = biological target: T26, APC5531-AA; conditions: mean of both orientations
T26 chain: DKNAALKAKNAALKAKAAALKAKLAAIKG

APC6088-AA = biological target: T27, APC6088-AA; conditions: mean of both orientations
T27 chain: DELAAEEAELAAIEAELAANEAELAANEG

APC7524-AA = biological target: T28, APC7524-AA; conditions: mean of both orientations
T28 chain: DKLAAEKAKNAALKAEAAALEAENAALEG

APC8401-AA = biological target: T29, APC8401-AA; conditions: mean of both orientations
T29 chain: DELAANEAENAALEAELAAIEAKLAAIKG

APC8516-AA = biological target: T30, APC8516-AA; conditions: mean of both orientations
T30 chain: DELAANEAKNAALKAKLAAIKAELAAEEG

APC9141-AA = biological target: T31, APC9141-AA; conditions: mean of both orientations
T31 chain: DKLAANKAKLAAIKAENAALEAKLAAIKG

APC9182-AA = biological target: T32, APC9182-AA; conditions: mean of both orientations
T32 chain: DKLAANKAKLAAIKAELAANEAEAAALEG

APC9291-AA = biological target: T33, APC9291-AA; conditions: mean of both orientations
T33 chain: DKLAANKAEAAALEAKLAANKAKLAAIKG

APC9806-AA = biological target: T34, APC9806-AA; conditions: mean of both orientations
T34 chain: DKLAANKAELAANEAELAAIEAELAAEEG

4H_GCN4, sequence (chain, as listed by the source): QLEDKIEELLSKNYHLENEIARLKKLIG

B1: 4H337-AA (peptide)
chain: DEIAALEAKIAALKAENAALEAEIAALEG
B1 gave an interaction score (4H337-AA) of -0.119, an interaction score (4H3587-AA) of -1.2 and an interaction score (4H3590-AA) of 0.707. It also gave an interaction score (4H3625-AA) of -0.713, an interaction score (4H384-AA) of 1.88 and an interaction score (4H3905-AA) of -0.0231. It also gave an interaction score (4H4038-AA) of 2.08, an interaction score (4H43-AA) of -0.783 and an interaction score (4H451-AA) of -0.516. For the same binder, the interaction score (4H510-AA) was 1.23, the interaction score (4H_APH) was -1.22 and the interaction score (4H_BCR) was -0.845. It also gave an interaction score (4H_GCN4) of -1.01, an interaction score (GCN2_T) of -1.48 and an interaction score (O11-AA) of -0.88. The interaction score (O13-AA) was 0.869 and the interaction score (O14-AA) was 1.85.

B2: APC2811-AA (peptide)
chain: DEAAALEAELAANEAKLAAIKAKLAAIKG
B2 gave an interaction score (APC2811-AA) of -0.415, an interaction score (APC2981-AA) of -1.57 and an interaction score (APC3265-AA) of -1.3. The interaction score (APC3323-AA) was -1.68, the interaction score (APC3354-AA) was -1.67 and the interaction score (APC3881-AA) was -1.68. The interaction score (APC4100-AA) was 0.341, the interaction score (APC4336-AA) was -1.61 and the interaction score (APC5009-AA) was -0.812. The interaction score (APC542-AA) was -1.59, the interaction score (APC5531-AA) was -1.88 and the interaction score (APC6088-AA) was -1.51. For the same binder, the interaction score (APC7524-AA) was -1.75, the interaction score (APC8401-AA) was -1.58 and the interaction score (APC8516-AA) was -1.65. It also gave an interaction score (APC9141-AA) of -1.29, an interaction score (APC9182-AA) of -1.35 and an interaction score (APC9291-AA) of -1.78. It also gave an interaction score (APC9806-AA) of -1.74.
